Test results as given in the DeepSol protein solubility set.

test: soluble on expression in E. coli; label from the status in PepcDB or PDB records

| Sequence | soluble on expression in E. coli |
| --- | --- |
| MDTEMLIDKYQLNDSEAAVLRFMDKNRDCLKSLGIREVAKASYVSTTAIINMAKKIGYSGYSELVFAYGNKHSSISFPENFSNEEKDEFIRLLSRYREKRIMVLGSGFSQNIANHFSEMLNLYGFRATANSHLEFLRENVEKDVLIFIVSNSGDTLRLAELVKLAKNHHIDLIAFVGEKKSKIGQLATLTISTETYNPQVVSEYQPNLFFGTALNQFELLLSEALKSIFI | not soluble |
| MEKGTPPTHDSDNWMGRAKEIGNGGWDQFQFLFFDPNGYLYAVSNDKLYKASPPQSDTDNWIARATEIGSGGWSGFKFLFFHPNGYLYAVRGQRFYKALPPVSNQD | soluble |
| MKQHCQKQSTARSTKLQYLAENQNDQPRLLAGSLSHGDSTTGPIKYKDGHQKRTTVVWDGQGTIRDETKSNIIKLTYLYLFPSCGAGSVRELVPFSSYHSFIVTHSTFNITMIALQSKCILPPCLPL | not soluble |
| MEAVHCFRCYKFPSKQIEFYLTNCMHMFCIECERLCHPPEEEPLKCIQCSKTPIRIVKMGPELPMTIKSMFTPISEEINQYTRDLTRVLTFQHRQRASLSTFLERKVAAFDRLRDAYSEEKTKKEHYKKQLEEAYHLLKSKEHEISKLKKQLAEQAPPPQTPPRSNSLKVASSRSLETPSMMRVFSDSMYETPVQIQRRFTKAQAKAEAEAEAPAKSPGSKAQTTKCTSNYQSHPPASFETPIHHPPKTSMGFTTPANPPHMFPYLKKHEAQREKHKEHRNSQ | not soluble |
| SRMQRDLSDSTVLRNLGVAFSYSLIAYHSVAKGNDKLQINKSALQKDLSENWEVLAEAIQTVMRRYNEPNAYEQLKELTRGQMIDAENLKKFIKTLSIPEEAKAELMKLTPETYTGLATQLVKAFS | not soluble |
| MGSDKIHHHHHHMGNATRIYEKHVDIKKDTVQDFWNKRAKKHIPENPYISVKCNDQNPDYAKNLDKYEKEIIIPKLNITRNSNILDIGCGVGRLADDIVPICNYYLGTDFAEDLISIAKKRFSDNDCDFQVCDFINTLYDTKVKSKMPFDTILLAGVTMYINDDELKIALKNLLGILDKKATIYISIPIGINKRLTLKEFYSKELNSEYNVIYRTIEEYEEILKPLLDEGFEIVESKSFLTDINQYSDTERHYFILKR | not soluble |
| MGSDKIHHHHHHMKSRFYRPLSLASVSPSYFPEIALYVRNSGNYILYKNHDRQFTEEDRHRLERTNTSFLYVRSGDMDAVTEYLEQNLDTLLARDDIDSNAKGTILYQTAANYVTDVFDEPGKTADIIRCRSLIRHLMKYVAGHEDALKALQAITSQNYYIFTHSVQVAALMMLVHDRLFRLNQDEMIDVGIGSLLHDVGMVFLSGQLLDKPDALAAIEYHKAKQHAQKGYEHLQSAGTLSEVSLTIVRHHHEKYDGSGYPAGLKGDDIPRSAQLAALCDTYCAMTTDRPKHTALPGAEALRIMEDEVGGAFSPDLFYRFADVVKGKGKA | not soluble |
| GKRLYNVKQSALSIRQIDLQRRHIEQSIRMGIKNQNDRLRTCMQRFVASEEAVRSAEKGYQIAEKRYQTGEGTLVELNDADVALLQARLNYNQAIFDFMTAKAELDKMNGMGIPEQ | not soluble |
| SNAMNIQALLSEKVSQALIAAGAPADCEPQVRQSAKVQFGDYQANGVMAVAKKLGMAPRQLAEQVLSHLDLNGIANKVEIAGPGFINIFLDPAFLADNVNRALQSERLG | soluble |
| MIHAARSLAGSRAGPLLALLLLGLATARAEPVDGLPLRADGDGRWSLAAGRYAGNFVIDRPLHLRCEAGAELDGGGHGSLLTLTSPGITVEGCRLRNWGRNLTELDAAIFVGKAASGAVIRGNDLRGAGFGVWLDATVGAQVLDNRIEGDESVRSQDRGNGIHLYAVKDALVRGNRVSHTRDGVYIDTSNDSSIEANRFEELRYGVHYMFTHNSRVTDNLTRRTRTGYALMQSRKLTVTGNRSIDDENYGILMNYITYSTLAGNRVEGVRSGSTGDAMISGAEGKALFIYNSLFNRIEGNSFADSALGIHLTAGSEDNRIAGNAFIGNRQQVKYVASREQEWSADGRGNYWSDYLGWDRDDDGLGDVAYEPNDNVDRLIWLYPQVRLLLNSPSIELLRWVQRAFPVVRSPGVRDSHPLMRMPAAEPRPLEHHHHHH | not soluble |
| LLLGDEAIAQAALDAGLSGVYAYPGTPSTEITEYIQMAPITSERNIHNRWCANEKTAMEAALGMSFVGKRALVCMKHVGMNVAADCFINSAITGVKGGLIVVAADDPSMHSSQNEQDSRFYGDFSLIPMYEPSNQQEAYDMVYNGFEFSEKIGEPILMRMVTRLAHSRSGVENKAQKPQNEISFSEDPRQFILLPGNARKRYKVLLTRQEEFIKASEESPYNRYIDGPNKKTGIVACGIGYNYLMENYPEGCEYPVLKVGQYPLPKKQLMQLIDACDEILVLEDGQPFVEKQLKGYLGIGLKVKGRLDGTLSQDGELNPDTVARALGKENSSEFNVPNIVEMRPPALCEGCGHRDMYITLTQVLKEEYPTHKVFSDIGCYTLGANAPFNAINSCVDMGASITMAKGASDGGLHPAVAVIGDSTFTHSGMTGLLDCVNENANVTIVISDNETTAMTGGQDSAGTGRLEAICAGLGVDPAHIRVVVPLK | not soluble |
| MSLKMQEPIEDPLSKLTQYSGKTFVIKYGGSIMKNKKAEEAFIKDVKYLRKLGINIVIVHGGGPEISRWLELSGIESRFVDGLRVTDEKVIEIVQMVLSGKINKKLSLQFNIDGVNAVGLSGVDNKLIEATKKYVYKGNETIDIGYVGKVTKVNSEFIKELLKGGQVPVIAPIGCDNKGNVYNINADYAAAFISSALDAEKLIILTDVEGVYRNINDPQSIIHEIDIKDVNYYIKEEIIKGGMIPKVQCCASAIENGTKNVQLIDGRNDHCLINDILNYRGTIISYRSGVKCQKAIEGHHHHHH | soluble |
| MITTQDKELLAKKGITEAQIAEQLACFQTGFPYLKLDAAASIEKGILAPDAEEKNAYLAAWDAYKNTDKIIVKFVPASGAASRMFKNLFEFLSAEYDKPTTKFEQAFFDGIKDFAFYDDLNVACQRTAGKDIPGLMEEGNYKAVVAALLETAGLNYGALPKGLLKFHKYPEGSRTPLEEHLAEGAMYAAGKSGKVNVHFTVSTEHRELFKKLVEEKAEAFGKRYGVDYYITFSEQKPNTDTIAADMDNQPFRDNGKLLFRPGGHGALIENLNDLDADIIFIKNIDNVVPDKLKADTVTYKKLIAGVLVSLQKKAFEYLELLDSGKYTHEQIMEILQFLQKQLFCKNPETKNLEDAELVIYLKNKLNRPMRVCGMVKNVGEPGGGPFLAYNSDGTISLQILESSQIDMNDPAKKEMFEKGTHFNPVDLVCAVRDYKGHKFDLVKYVDKATGFISYKSKNGKDLKALELPGLWNGAMSDWNTVFVEVPLTTFNPVKTVNDLLREQHQ | not soluble |
| MGSDKIHHHHHHMSSDVRKALDPGTPYSRTLKQYSIDEKLAIISHAKNHGNRAAGREFNVAESSIREWRKNENKLIHNRDAAAARLNAQSSHSSGPARLNNMNNNNNNNHNHSKNNNIQYTQTVFPRRTPDDIVKHIQIAQITQLAMMKMDFTSLARIAPFLQAHQHQQQAQAKPDSISTASSVVGTPSSISSSSSTPPPSTSPVPTSSGSGRRKPRCPMKIVVAESNNPVNIEEIQENIDE | not soluble |
| MMPRMGPPAAARQDNPLHVSFRNPQWPPNFINKDNVLDYFCNQANAFYEMNSCNQQIRMQNIVNRTVEECLRTMPGIQYVLWYSQPPLFIICKQRRNNVTNVSPIAYYYVINGSVHQAPDMYSLVQSRLLGALEPLRNAFGEVTNYSRYNTAKGYYWEFKNKPNVKKREEEKKEDEEEKLEDRSTNFQKTRTMMLLNQLFSEMPAEDALEREEKEEVEEEEEETLKTEEPTTSTDEPKFAEPTARTTSKQ | not soluble |
| MAHHHHHHMDGAYGMRTVLNSSRLEEEPKYTLNPADLPHSSMNANNMMNGAVLTNGYHTSDYVINRESYPPDMMPQFKIDQGGSAYNNTMPMNSIIHTDPNESINMQGMKTCLETTTGFDSYRNLMNYNNTQNTIQASQVPFHLDDYNSGADLMYMSHPHTGDNFSPDYLNNLRSTETDPMTYGNNFNIPNGQFNSMLGENNNYNSLPYSMPIFENMNNPQMYMQQMNSKQALSGPTQKMDHTCSIRKMPAVSKRKIKPKKFFPCC | soluble |
| VACMIPAPAYHPDPRFQALGGEFADPVEPADFPETVLRFRNDRAAATVGLETLDDRAWLRHFGRFEPLPDNQTRPLAMRYHGHQFRVYNPDLGDGRGFLFGQLREAGTGRLLDLATKGSGQTPWSRAGDGRLTLKGGVREILAASFLEALGVPTSRWCGL | soluble |
| MRLFHTSDWHLGQNLHGQERDFEHACFLTWLLARLAERQPDVLLIAGDIFDTVNPPVKAQERLYDFIVNAHEQQPLLTIVMIAGNHDSGSRIELPAPLMRRLRTHALGRVMWLNDGVLDAERLLLPLPDANGDIKAWCLALPFLRPAEVTGPTLGDDYLRGIGRVHELLIDAANLKRQPGQALIAISHAHMAGGSVSEDSERSLIIGNAEALPASLFGPSITYVALGHLHKPQRVNGEERIRYSGSPIPLSFSEIGYQHQILEINCDGDTLTSVEPCLIPRAVNLQRLGPAPLADLLVQLKSLPDIDLLADPDRQPWLEVRVRLDEPQPDLRNQIETALQGKAVRLVRIGAEYAGKGSADGSDGEAGLIELDQLTPQELFSRAWQDNFGSEVDEQTLTDFATLLREVQQESEQP | not soluble |
| MSLGYKQIRDVSVLCDFAANCTLSLNPGTGENAPGIGLYRSSKADSIPELRLSFSEQMPKTGKLEILVDGKPELDTNIAALKVRNNELVYVDEAGVAKLIGAMKNGQKLQLKLADKVSGYSLSGFVGGLIYLDEQQARDGTVAALQVKGTKPAPAAPDITLIETVEQIPEGIRKDFSDDAATCGGASPESFRLAGGFVTKIADGLNLVGLPCGAPGAYNQPYVFYSRYENRIVPVSLPVISDDGPTTTDSAWNIDWNNRTRTLTGFFKGRGIGDCGTYDVWKAVDSGEGRVSFVLKEERAKGDCDGNYAGGPQNWPASWPPKTKEGHHHHHH | soluble |
| MSLGEFVFKGLLQEKGWIENAVVKTNDFGVITSIKSDPERKDGCDYAIPGFQNAHSHAFQYAMAGLAELHSTSKTKNDFWSWRKIMYDLALNITPDQMEDIATMLYKEMLRHGYTHVAEFHYLHHDLSGEKYNNCSEMGERIIAAAKRAGIKLTLVPIFYQNGGFGRKAENEQRRFISSSFNDYKNLVEASISSSKNYEHSSVAYGIHSMRAVSAENIIKLSEQKENGAPFHIHVSEQLKEIEDSVAFLGLRPVDWLSENIDLNPDYHLVHATHLTQNEIESIAKSQANVVLCPSTEGNLGDGIFPLNEFLKHGGKWSIGTDSHVGLNPFEELRILDYGQRLISHNRNTFGNNISGDNGNIAISSALVNGRKAMGIEQTHYFEVGKSFDALIISDQHPLIQTVSLKNLTNTLVYSSDNSMYKGTIVNGDWKIKDGQHADDNIHADFIQTLNALKVREGHHHHHH | soluble |
| VLDVDTARRRIVDLTDAVRAFCTAHDDGLCNVFVPHATAGVAIIETGAGSDEDLVDTLVRLLPRDDRYRHAHGSYGHGADHLLPAFVAPSVTVPVSGGQPLLGTWQSIVLVDLNQDNPRRSVRLSFVEG | not soluble |
| MGSDKIHHHHHHMKSQWECFLQNLGVWEGSFSNFSPEGTLLNDTSSRLCLEGLNNNQTVRLTLSRSGKDDVIREFRSVGGGLLFFENGSFSEGLIQLGPFSEFGGELAFVHENRRLRLVQLFDRNGHLNGLTLIREHLAGTPVAERPLLQINDLLGEWRGQAVTIYRDLRPPDIYSTTLKIQLDDAGRLMQSTSFGERTITSTATIKGSIVLFDQDPEKQVQVLLLPDGASATSPLKVQLRQPLFLEAGWLIQSDLRQRMIRSYNDKGEWVSLTLVTEERV | not soluble |
